Measurements from PMC10833071.

Target: TdsR receptor of E. coli (on cells) (E. coli (endogenous in E. coli cells))
Assay: flow cytometry on cells

Substance: TepC-GFP (natural protein)
- GFP-labeled cells: 33.1%
